# Laboratory results taken from article PMC4601532 (Science (New York, N.Y.), 2015).
# T1: Vps15, subunit of complex II (Saccharomyces cerevisiae, UniProt P22219 1-1454)
# T1 sequence: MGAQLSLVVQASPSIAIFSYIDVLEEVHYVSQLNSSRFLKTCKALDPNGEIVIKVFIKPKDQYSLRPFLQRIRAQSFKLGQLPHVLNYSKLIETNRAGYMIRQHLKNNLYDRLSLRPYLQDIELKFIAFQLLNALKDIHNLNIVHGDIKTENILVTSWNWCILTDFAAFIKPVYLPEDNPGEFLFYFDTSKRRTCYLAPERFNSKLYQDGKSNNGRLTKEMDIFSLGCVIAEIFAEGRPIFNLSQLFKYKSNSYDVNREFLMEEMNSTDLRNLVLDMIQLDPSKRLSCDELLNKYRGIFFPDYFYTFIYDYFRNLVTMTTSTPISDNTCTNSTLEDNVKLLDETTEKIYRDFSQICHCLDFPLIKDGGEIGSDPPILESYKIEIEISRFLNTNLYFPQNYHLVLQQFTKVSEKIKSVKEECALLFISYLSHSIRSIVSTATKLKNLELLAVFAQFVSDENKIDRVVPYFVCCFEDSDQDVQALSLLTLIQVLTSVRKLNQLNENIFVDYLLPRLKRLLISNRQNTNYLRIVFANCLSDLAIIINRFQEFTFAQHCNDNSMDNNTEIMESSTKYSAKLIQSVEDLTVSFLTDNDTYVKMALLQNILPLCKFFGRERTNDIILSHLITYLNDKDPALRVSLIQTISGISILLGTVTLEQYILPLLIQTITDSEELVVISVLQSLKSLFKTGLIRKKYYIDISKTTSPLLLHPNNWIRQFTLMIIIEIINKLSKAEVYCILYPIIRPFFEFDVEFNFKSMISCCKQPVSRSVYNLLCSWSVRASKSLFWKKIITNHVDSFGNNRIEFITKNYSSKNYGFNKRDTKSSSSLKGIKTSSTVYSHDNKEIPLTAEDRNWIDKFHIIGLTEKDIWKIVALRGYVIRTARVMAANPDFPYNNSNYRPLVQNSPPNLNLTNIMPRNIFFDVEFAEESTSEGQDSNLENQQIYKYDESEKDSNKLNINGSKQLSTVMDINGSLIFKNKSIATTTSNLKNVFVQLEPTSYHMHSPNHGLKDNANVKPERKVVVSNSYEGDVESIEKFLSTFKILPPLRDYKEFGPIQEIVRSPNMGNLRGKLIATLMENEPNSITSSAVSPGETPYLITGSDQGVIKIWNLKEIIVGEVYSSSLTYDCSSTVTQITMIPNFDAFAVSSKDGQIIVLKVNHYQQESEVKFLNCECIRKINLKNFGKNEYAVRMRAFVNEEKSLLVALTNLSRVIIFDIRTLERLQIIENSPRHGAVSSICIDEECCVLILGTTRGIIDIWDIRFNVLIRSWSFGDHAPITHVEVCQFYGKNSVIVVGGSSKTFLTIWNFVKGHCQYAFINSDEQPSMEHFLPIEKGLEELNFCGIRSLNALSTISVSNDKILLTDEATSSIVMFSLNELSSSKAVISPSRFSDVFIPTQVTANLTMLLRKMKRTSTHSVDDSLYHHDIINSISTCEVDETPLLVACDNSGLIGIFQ
# B1: Vps30/Atg6, subunit of complex II (natural protein)
# chain: MKCQTCHLPLQLDPSLEGLSLTQRNLLLSNNSIITATNENVISNKGIEAADNCGPQIPKERLRRLGEIQNIKDLNLKDDKLITDSFVFLNHDDDDNANITSNSREDQRYGNANGNDNKKANSDTSDGTSTFRDHDEEEQEATDEDENQQIQLNSKTLSTQVNAMTNVFNILSSQTNIDFPICQDCCNILINRLKSEYDDAIKERDTYAQFLSKLESQNKEISESNKEKQYSHNLSEKENLKKEEERLLDQLLRLEMTDDDLDGELVRLQEKKVQLENEKLQKLSDQNLMDLNNIQFNKNLQSLKLQYELSLNQLDKLRKINIFNATFKISHSGPFATINGLRLGSIPESVVPWKEINAALGQLILLLATINKNLKINLVDYELQPMGSFSKIKKRMVNSVEYNNSTTNAPGDWLILPVYYDENFNLGRIFRKETKFDKSLETTLEIISEITRQLSTIASSYSSQTLTTSQDESSMNNANDVENSTSILELPYIMNKDKINGLSVKLHGSSPNLEWTTAMKFLLTNVKWLLAFSSNLLSKSITLSPTVNYNDKTISGN
# B2: Vps38, subunit of complex II (natural protein)
# chain: MKRFLLSRRQRHLRMICFHNISLFRANGDSKLIKEYGDGFIPCFFILESIRGELLYVSEVQSGSLRKLSFQELPKLTGASTMIVLKLVGLVPSDILCTISSDKNGIIDDKWCVLCTYTIDLNKLQPINEDTVLITGTNAPVLDLIDGSYTLAAEKIKPLKGLVSSHKRNISQVKIKFSLAYSSLLKLNKLLEYSSQVHEEINEISSKIEDDFLSLKNQNHWYMRTVQKSIETLEKEVLQRKKSKKNIEMAQLESNDTINHSKTELSLMSQDESINDDYGSIYSRFVQIKDRLDQLRFKKLYQLIGIFHSTDLFNSDRGYIYFEKPSSVNDVINRLKLKPLNIEILLRQAGESTKHREYVNSQLGYYLLFLHLTAIQIFKAPLPYRLMYYGSTSVIDSQYPLYFTDQMISKHQAKLIKAIHYFNADILQFKQILENYRPT
# B3: Vps30/ZZ-Vps38 heterodimer held on IgG beads (complex)
# chain 1: B1 chain
# chain 2: B2 chain
# B4: Vps34 (vacuolar protein sorting 34), subunit of complex II (enzyme)
# chain: LNNITFCVSQDLDVPLKVKIKSLEGHKPLLKPSQKILNPELMLIGSNVFPSSDLIVSLQVFDKERNRNLTLPIYTPYIPFRNSRTWDYWLTLPIRIKQLTFSSHLRIILWEYNGSKQIPFFNLETSIFNLKDCTLKRGFESLKFRYDVIDHCEVVTDNKDQENLNKYFQGEFTRLPWLDEITISKLRKQRENRTWPQGTFVLNLEFPMLELPVVFIEREIMNTQMNIPTLKNNPGLSTDLREPNRNDPQIKISLGDKYHSTLKFYDPDQPNNDPIEEKYRRLERASKNANLDKQVKPDIKKRDYLNKIINYPPGTKLTAHEKGSIWKYRYYLMNNKKALTKLLQSTNLREESERVEVLELMDSWAEIDIDDALELLGSTFKNLSVRSYAVNRLKKASDKELELYLLQLVEAVCFENLSTFSDKSNSEFTIVDAVSSQKLSGDSMLLSTSHANQKLLKSISSESETSGTESLPIVISPLAEFLIRRALVNPRLGSFFYWYLKSESEDKPYLDQILSSFWSRLDKKSRNILNDQVRLINVLRECCETIKRLKDTTAKKMELLVHLLETKVRPLVKVRPIALPLDPDVLICDVCPETSKVFKSSLSPLKITFKTTLNQPYHLMFKVGDDLRQDQLVVQIISLMNELLKNENVDLKLTPYKILATGPQEGAIEFIPNDTLASILSKYHGILGYLKLHYPDENATLGVQGWVLDNFVKSCAGYCVITYILGVGDRHLDNLLVTPDGHFFHADFGYILGQDPKPFPPLMKLPPQIIEAFGGAESSNYDKFRSYCFVAYSILRRNAGLILNLFELMKTSNIPDIRIDPNGAILRVRERFNLNMSEEDATVHFQNLINDSVNALLPIVIDHLHNLAQYWRT
# Assays:
# [1] = molecular target: Vps38-C2 with CC1 region (Saccharomyces cerevisiae); assay: SEC-MALS
# [2] = molecular target: T1, Vps15, subunit of complex II; assay: SEC-MALS
# [3] = molecular target: B2; assay: SEC-MALS
# [4] = molecular target: B4; assay: crystal structure
# [5] = molecular target: B1; assay: crystal structure
# [6] = molecular target: Saccharomyces cerevisiae Vps15/Vps34 heterodimer (Saccharomyces cerevisiae, UniProt P22219;P22543); assay: pull-down
# [7] = molecular target: B1; assay: SEC-MALS
stoichiometry N [2],stoichiometry N [3],binding result [4],Molecule,other results
,,,Vps30-NTD with CC1 region (domain or fragment),stoichiometry N [1]: 1
1,1,binds,B1,
1,,binds,B2,binding result [5]: binds
,,,B3,binding result [6]: binds
1,1,,B4,stoichiometry N [7]: 1
